No end group written: not given here. *: point of attachment. Butanoyl(4-pyren-1-yl) = O=C(CCCc1ccc2ccc3cccc4ccc1c2c34)*

Common to all, as to format: physicochemical
A short description of series [1]: Circular dichroism (CD) spectroscopy of the amphiphilic peptide depending on ionic strength and pH. To be noted: for [θ]222/[θ]208 (degree of α-helix stabilization): 4° C., 1 μM peptide. The method, then: Circular dichroism (CD) spectroscopic analysis was performed as follows in order to investigate the dependence of the conformation of the amphiphilic peptide prepared in Preparation Example on ionic strength.
CD spectra were recorded using the Chirascan circular dichroism spectrometer equipped with a Peltier thermostat. The spectra were recorded between 260 nm and 190 nm using a 2-mm path cuvette. 10 scans were averaged. Also, molar ellipticity per amino acid residue was calculated. The peptide concentration was 1 μM unless specified otherwise and the sample solution incubated at least for a day before the measurement.
In the graph, ∘ indicates the peptide dissolved in water, and • indicates the peptide dissolved in 150 mM KF. In Test Example 1, the measurement of the samples was measured at 4° C.

The nature of series [2]: Atomic force microscopy (AFM) of the amphiphilic peptide. The method, then: The amphiphilic peptide prepared in Preparation Example was subjected to atomic force microscopic (AFM) measurement. Atomic force microscopic scanning was made at 1.2-1.5 V with 0.5 Hz. The result is shown in FIGS. 15a-15b and FIGS. 16a-16b.
FIGS. 15a and 15b show atomic force microscopic (AFM) images of 2.5 μM of the amphiphilic peptide dissolved in water. FIG. 15a is a height image and FIG. 15b is a phase image.
FIGS. 16a and 16b show atomic force microscopic (AFM) images of 1 μM of the amphiphilic peptide dissolved in a 150 mM KF solution. FIG. 16a is a height image and FIG. 16b is a phase image.

A short description of series [3]: Fluorescence spectroscopy of the amphiphilic peptide in water or 150 mM KF (pyrene excimer). To be noted: 0.25-20 μM peptide. The procedure: The amphiphilic peptide prepared in Preparation Example was subjected to fluorescence spectroscopic measurement after dissolving in water or a 150 mM KF solution. Details are as follows.
Fluorescence spectra were measured using the LS55 fluorescence spectrometer (PerkinElmer). Pyrene was excited at 341 nm and the emission spectra were recorded in the range of 360-550 nm. The solid (-) curve indicates the amphiphilic peptide dissolved in 150 mM KF and the dotted ( . . . ) curve indicates the amphiphilic peptide dissolved in water.
Also, emission spectra were measured after dissolving 0.25-20 μM of the amphiphilic peptide prepared in Preparation Example in water (a) or a KF solution (b).

For “amphiphilic peptide prepared in Preparation Example: hairpin-shaped amphiphilic peptide derived from HIV-1 rev protein (Rev12-64) with a pyrene group bound to the N-terminal via pyrenebutyric acid ({Butanoyl(4-pyren-1-yl)}-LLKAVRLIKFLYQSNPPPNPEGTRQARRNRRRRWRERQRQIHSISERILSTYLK)”, the figures for the “[θ]222/[θ]208 (degree of α-helix stabilization)” value in series [1] (150 mM KF (increased ionic strength)) and in series [1] (in water) were 0.71 and 0.31, respectively. In addition, in series [1] (CD analysis, FIG. 12), the “solubility depending on pH” value is recorded as “solubility decreases gradually as the pH increases”. In series [2] (1 μM peptide in 150 mM KF, AFM), the “particle diameter of globular nanostructures” value is 20-50 nm. Besides, in series [2] (2.5 μM peptide in water), the “state of the peptide by AFM” value is “exists mostly in monomer form”. Besides, the results for the “excimer peak of pyrene (self-assembly)” value in series [3] (dissolved in pure water) and in series [3] (ionic strength 150 mM (KF)) were “no excimer peak of pyrene was observed” and “the excimer peak of pyrene was observed”, respectively.

(Values after patent publication US9732120B2, “Self-assembled peptide nanostructures by exploiting conformational change, biosensor using the same and detection method of biomolecules using the same” (INDUSTRY-ACADEMIC COOPERATION FOUNDATION, YONSEI UNIVERSITY, priority 2014, dated 2017).)
